The supplement of paper PMC7125110
± gives the standard error. Fewer inactive variants are shown than the library holds.

B1: glmS ribozyme (parent)
chain: AUAAAAGCGCCAGAACUACAGAAAUGUAGUUGACGAGGAGGAGGUUUAUCGAAUUUUCGGCGGAUGCCUCCAAA

How the values were obtained:
Details in all cases: with glucosamine-6-phosphate
glucosamine-6-phosphate [1] = variants of: B1; test: self-cleavage kobs at 160 uM GlcN6P; higher = faster cleavage; RNA array
How it was run: (§1)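 Barcoded ribozyme variants on sequenced MiSeq chips were transcribed in situ by E. coli RNA polymerase and followed at 37 °C through a hybridised Cy3 probe. Glucosamine-6-phosphate at 40 μM to 10 mM in HEPES/KCl/Mg(OAc)2 buffer was flowed in, and tiles were imaged over ~14 h. Signals were normalised to baseline and to non-cleaving reference variants, and per-tile medians were fit to one- or two-exponential decays to give kobs. Weighted Michaelis–Menten fits across concentrations gave kcat and KM.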

glucosamine-6-phosphate [2] = variants of: B1; test: self-cleavage kobs at 640 uM GlcN6P; higher = faster cleavage; RNA array
How it was run: as §1

glucosamine-6-phosphate [3] = variants of: B1; test: self-cleavage kobs at 2500 uM GlcN6P; higher = faster cleavage; RNA array
How it was run: as §1

glucosamine-6-phosphate [4] = variants of: B1; test: self-cleavage kobs at 10000 uM GlcN6P; higher = faster cleavage; RNA array
How it was run: as §1

Variant	self-cleavage kobs at 160 uM GlcN6P (glucosamine-6-phosphate [1])	self-cleavage kobs at 640 uM GlcN6P (glucosamine-6-phosphate [2])	self-cleavage kobs at 2500 uM GlcN6P (glucosamine-6-phosphate [3])	self-cleavage kobs at 10000 uM GlcN6P (glucosamine-6-phosphate [4])
C10U G51U	< 1e-05 s⁻¹	< 1e-05 s⁻¹	< 1e-05 s⁻¹	< 1e-05 s⁻¹
G9U A48U	< 1e-05 s⁻¹		< 1e-05 s⁻¹	< 1e-05 s⁻¹
A33C G35C U45G A64C	< 1e-05 s⁻¹		< 1e-05 s⁻¹	
G9C G32C A33C A39G C61A	< 1e-05 s⁻¹		< 1e-05 s⁻¹	
C50G U65C	4.48e-05 ± 1.6e-05 s⁻¹	0.000255 ± 0.0001 s⁻¹	4.37e-05 ± 2.1e-05 s⁻¹	
G13U G38U U65G	< 1e-05 s⁻¹			
G37U G44C U47C G63A		< 1e-05 s⁻¹	< 1e-05 s⁻¹	
C16U A36U U55C U56C C58G	< 1e-05 s⁻¹		< 1e-05 s⁻¹	
A36U G60A	< 1e-05 s⁻¹		< 1e-05 s⁻¹	< 1e-05 s⁻¹
G29U U69C	3.84e-05 ± 1.5e-05 s⁻¹	0.000356 ± 9e-05 s⁻¹	0.000114 ± 3.1e-05 s⁻¹	
G7U A36C A48C A53U	< 1e-05 s⁻¹		< 1e-05 s⁻¹	
G7A U30C C61A C67U	< 1e-05 s⁻¹			
A6C G35C G44U	< 1e-05 s⁻¹	< 1e-05 s⁻¹	< 1e-05 s⁻¹	
A12C U49A C50A	< 1e-05 s⁻¹		< 1e-05 s⁻¹	
C8U C16U U54A C61A C71U	< 1e-05 s⁻¹	< 1e-05 s⁻¹		
G7U G13U A14U A48G U54A	< 1e-05 s⁻¹	< 1e-05 s⁻¹	< 1e-05 s⁻¹	
U49A U56C A64U	< 1e-05 s⁻¹	< 1e-05 s⁻¹	< 1e-05 s⁻¹	
U54G C68A	6.58e-05 ± 2.7e-05 s⁻¹	6.59e-05 ± 2.9e-05 s⁻¹	0.000107 ± 2.7e-05 s⁻¹	
A53U G62U A64U	< 1e-05 s⁻¹	< 1e-05 s⁻¹	< 1e-05 s⁻¹	
A12G G59C G63C C67A	< 1e-05 s⁻¹	< 1e-05 s⁻¹	< 1e-05 s⁻¹	
U45G C61U G63A U65C	< 1e-05 s⁻¹	< 1e-05 s⁻¹	< 1e-05 s⁻¹	
U46G A53U U65G	4.57e-05 ± 1.6e-05 s⁻¹	0.000379 ± 9.9e-05 s⁻¹	0.000976 ± 0.00018 s⁻¹	
U30C C58U C67G C71A	0.000188 ± 5.3e-05 s⁻¹	0.000584 ± 0.00013 s⁻¹	0.000197 ± 4.3e-05 s⁻¹	
G9C U56A	< 1e-05 s⁻¹	< 1e-05 s⁻¹	< 1e-05 s⁻¹	
G9U U31A C71U	< 1e-05 s⁻¹	< 1e-05 s⁻¹	< 1e-05 s⁻¹	
C11G A12G G13C A14G	< 1e-05 s⁻¹	< 1e-05 s⁻¹	< 1e-05 s⁻¹	< 1e-05 s⁻¹

Variant	self-cleavage kobs at 160 uM GlcN6P (glucosamine-6-phosphate [1])	self-cleavage kobs at 640 uM GlcN6P (glucosamine-6-phosphate [2])	self-cleavage kobs at 2500 uM GlcN6P (glucosamine-6-phosphate [3])	self-cleavage kobs at 10000 uM GlcN6P (glucosamine-6-phosphate [4])
C16G G29U G37A	5.27e-05 ± 1.6e-05 s⁻¹	0.000272 ± 7.4e-05 s⁻¹	0.000382 ± 9.7e-05 s⁻¹	
G40C U46A A64G C70A	< 1e-05 s⁻¹			
C34G G59C	< 1e-05 s⁻¹	< 1e-05 s⁻¹		< 1e-05 s⁻¹
G32C U69A	< 1e-05 s⁻¹	0.00639 ± 0.0029 s⁻¹		2.46e-05 ± 1.2e-05 s⁻¹
A6G C11A A14U G40A	< 1e-05 s⁻¹			
A15G U47C G63A	< 1e-05 s⁻¹	< 1e-05 s⁻¹	< 1e-05 s⁻¹	
C11A G38C A42C	< 1e-05 s⁻¹		< 1e-05 s⁻¹	
C8U G41C G62U C68U	< 1e-05 s⁻¹	< 1e-05 s⁻¹	< 1e-05 s⁻¹	
G13A A33G G63C	< 1e-05 s⁻¹		< 1e-05 s⁻¹	
A42G U46G C67U	0.000274 ± 8.3e-05 s⁻¹		0.00148 ± 0.00058 s⁻¹	
G13U A15U A36C A42G G59C C67G	< 1e-05 s⁻¹			
C11U U47A	9.6e-05 ± 3.1e-05 s⁻¹	0.000187 ± 4.3e-05 s⁻¹	0.0014 ± 0.00025 s⁻¹	0.0016 ± 0.00047 s⁻¹
A6G G41A A42U A64U	< 1e-05 s⁻¹		< 1e-05 s⁻¹	
A53U C67G C68G		4.57e-05 ± 2.1e-05 s⁻¹		
A48G C50A C61G C67A C68U	8.22e-05 ± 2.2e-05 s⁻¹	8.1e-05 ± 3.2e-05 s⁻¹	9.85e-05 ± 2.5e-05 s⁻¹	
C11U A42U C68A	< 1e-05 s⁻¹		< 1e-05 s⁻¹	
C8U G40U	< 1e-05 s⁻¹		< 1e-05 s⁻¹	< 1e-05 s⁻¹
G13U G43U	< 1e-05 s⁻¹	< 1e-05 s⁻¹		< 1e-05 s⁻¹
G40C G44C C61U		< 1e-05 s⁻¹	< 1e-05 s⁻¹	
C8U G35A G43U	< 1e-05 s⁻¹	< 1e-05 s⁻¹	< 1e-05 s⁻¹	
A36C G51C	< 1e-05 s⁻¹			< 1e-05 s⁻¹
A6U G35C	< 1e-05 s⁻¹	< 1e-05 s⁻¹		< 1e-05 s⁻¹
C8A G40C G41C G63U	< 1e-05 s⁻¹	< 1e-05 s⁻¹		
G13U A33G G40U	< 1e-05 s⁻¹			
A12G G44C	< 1e-05 s⁻¹	< 1e-05 s⁻¹	< 1e-05 s⁻¹	
C8U U56G	< 1e-05 s⁻¹	< 1e-05 s⁻¹	< 1e-05 s⁻¹	

Variant	self-cleavage kobs at 160 uM GlcN6P (glucosamine-6-phosphate [1])	self-cleavage kobs at 640 uM GlcN6P (glucosamine-6-phosphate [2])	self-cleavage kobs at 2500 uM GlcN6P (glucosamine-6-phosphate [3])	self-cleavage kobs at 10000 uM GlcN6P (glucosamine-6-phosphate [4])
A6U G66A C67G	< 1e-05 s⁻¹			
A48U U49C A64U C70U	< 1e-05 s⁻¹	< 1e-05 s⁻¹		
U2C U56C	0.000197 ± 5.4e-05 s⁻¹	0.000865 ± 0.00022 s⁻¹	0.00287 ± 0.00077 s⁻¹	
A12U C50G C70G	0.000311 ± 7.3e-05 s⁻¹	0.000429 ± 8.2e-05 s⁻¹	0.000205 ± 7.3e-05 s⁻¹	0.000273 ± 6e-05 s⁻¹
A12C A15U U55G C67U	4.96e-05 ± 2.1e-05 s⁻¹	0.0001 ± 2.8e-05 s⁻¹	0.000447 ± 0.00013 s⁻¹	
U45A U54C	0.00513 ± 0.001 s⁻¹	0.0141 ± 0.0026 s⁻¹		
G41U A48U U49G	< 1e-05 s⁻¹	< 1e-05 s⁻¹	< 1e-05 s⁻¹	
A39C U47A C50A U56C	< 1e-05 s⁻¹		< 1e-05 s⁻¹	
C11A G43C C61G	< 1e-05 s⁻¹	< 1e-05 s⁻¹	< 1e-05 s⁻¹	
G9A G41A	< 1e-05 s⁻¹	< 1e-05 s⁻¹	< 1e-05 s⁻¹	< 1e-05 s⁻¹
G9U G37U C50U C67U	< 1e-05 s⁻¹			
A12C G13A A14G C16A U17C A18U A39G C50U A52G		< 1e-05 s⁻¹		
G37U A48C C68U	< 1e-05 s⁻¹	< 1e-05 s⁻¹		
A12C C16U A53G U65G	9.62e-05 ± 2.4e-05 s⁻¹	0.000453 ± 9.1e-05 s⁻¹	0.000899 ± 0.00019 s⁻¹	
G9A A14U		< 1e-05 s⁻¹	< 1e-05 s⁻¹	
A39C G51A C61A	< 1e-05 s⁻¹		< 1e-05 s⁻¹	
A14U G38A A53G G63U		< 1e-05 s⁻¹		
C11G A39C A64U	< 1e-05 s⁻¹	< 1e-05 s⁻¹		
A36C U54C	< 1e-05 s⁻¹			< 1e-05 s⁻¹
G40A C68G	< 1e-05 s⁻¹	< 1e-05 s⁻¹	< 1e-05 s⁻¹	< 1e-05 s⁻¹
C50G G59U C70U	4.6e-05 ± 2.1e-05 s⁻¹	9.86e-05 ± 2.5e-05 s⁻¹	8.37e-05 ± 3.5e-05 s⁻¹	
C11U U65C	< 1e-05 s⁻¹			
G35U G66C	< 1e-05 s⁻¹	< 1e-05 s⁻¹	< 1e-05 s⁻¹	
G35A G43A	< 1e-05 s⁻¹		< 1e-05 s⁻¹	
G41U G63A C71U	< 1e-05 s⁻¹			
A12C G37A A52G	< 1e-05 s⁻¹		5.63e-05 ± 1.7e-05 s⁻¹	

Variant	self-cleavage kobs at 160 uM GlcN6P (glucosamine-6-phosphate [1])	self-cleavage kobs at 640 uM GlcN6P (glucosamine-6-phosphate [2])	self-cleavage kobs at 2500 uM GlcN6P (glucosamine-6-phosphate [3])	self-cleavage kobs at 10000 uM GlcN6P (glucosamine-6-phosphate [4])
A42C U47A	< 1e-05 s⁻¹		< 1e-05 s⁻¹	
G9C C11A C16U G35C U54C G62A	< 1e-05 s⁻¹	< 1e-05 s⁻¹		
A39C C50G	< 1e-05 s⁻¹	< 1e-05 s⁻¹		
C50G U54A G63A	0.000158 ± 4.4e-05 s⁻¹	0.000109 ± 2.9e-05 s⁻¹	8.83e-05 ± 1.8e-05 s⁻¹	
A15G A33G	< 1e-05 s⁻¹	< 1e-05 s⁻¹		< 1e-05 s⁻¹
G9A A36U U56G		< 1e-05 s⁻¹		
C10A G41U C68G	< 1e-05 s⁻¹		< 1e-05 s⁻¹	
C10A A12G A15G C61A	< 1e-05 s⁻¹			
A6G G51U U56A C71U		< 1e-05 s⁻¹		< 1e-05 s⁻¹
C50G A64G	0.000518 ± 0.00017 s⁻¹	0.000105 ± 2.1e-05 s⁻¹		2.48e-05 ± 9.4e-06 s⁻¹
C34A C67G C68A	6.53e-05 ± 1.9e-05 s⁻¹	6.33e-05 ± 2e-05 s⁻¹	0.000284 ± 8.7e-05 s⁻¹	
C8A G60U U69A	< 1e-05 s⁻¹	< 1e-05 s⁻¹		
C10U G44U C61A	< 1e-05 s⁻¹	< 1e-05 s⁻¹	< 1e-05 s⁻¹	
G9U C19A	< 1e-05 s⁻¹			
A6U A14C	< 1e-05 s⁻¹			4.13e-05 ± 7.6e-06 s⁻¹
C11G A64U U65A	< 1e-05 s⁻¹	< 1e-05 s⁻¹	< 1e-05 s⁻¹	
C34U C70U	< 1e-05 s⁻¹	< 1e-05 s⁻¹		
A6G U30G G38U U55G		< 1e-05 s⁻¹	< 1e-05 s⁻¹	
A33U U47C C67G	< 1e-05 s⁻¹	< 1e-05 s⁻¹	< 1e-05 s⁻¹	
A39C G59U C61A	< 1e-05 s⁻¹			
A33G G37U C50G	6.35e-05 ± 3.1e-05 s⁻¹		0.000141 ± 4.1e-05 s⁻¹	
A14C A39G C58G G60U G62U	< 1e-05 s⁻¹		< 1e-05 s⁻¹	
G38C G60C C71G	< 1e-05 s⁻¹	< 1e-05 s⁻¹		
A33C U46C U56C G59C	< 1e-05 s⁻¹	< 1e-05 s⁻¹	< 1e-05 s⁻¹	
U55G U56C	0.000157 ± 3.8e-05 s⁻¹	0.000938 ± 0.00021 s⁻¹	0.00118 ± 0.00028 s⁻¹	0.00614 ± 0.0016 s⁻¹
C8U A33G C34G A36U U65C	< 1e-05 s⁻¹		< 1e-05 s⁻¹	
